This test deals with Fc-tagged CD147 (UniProt P35613).
Sequence of UniProt P35613 (P35613 138-325): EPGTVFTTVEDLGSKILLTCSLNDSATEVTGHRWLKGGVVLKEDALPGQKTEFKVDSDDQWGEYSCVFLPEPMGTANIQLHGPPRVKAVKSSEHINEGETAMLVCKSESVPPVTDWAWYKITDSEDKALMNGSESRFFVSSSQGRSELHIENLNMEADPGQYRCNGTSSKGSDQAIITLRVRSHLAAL

Take “recombinant human cyclophilin B (from UniProt P23284 34-216) (natural protein)”: the SARS-CoV-2 uptake by human monocytes (N protein RNA by RT-qPCR, 24 hpi) after pretreatment with recombinant human CypA and CypB together (each 10 µg/ml) as a decoy; CD147 endogenous on the monocytes (fold decrease) came to 2.7.
